For the assay, the target named is T1, recombinant full-length human PUMA (residue 1-193) (human, UniProt Q9BXH1 1-193).
T1 construct: Expressed as a GST fusion from pGEX-TEV (TEV site present); also called PUMA protein
T1 sequence (looked up): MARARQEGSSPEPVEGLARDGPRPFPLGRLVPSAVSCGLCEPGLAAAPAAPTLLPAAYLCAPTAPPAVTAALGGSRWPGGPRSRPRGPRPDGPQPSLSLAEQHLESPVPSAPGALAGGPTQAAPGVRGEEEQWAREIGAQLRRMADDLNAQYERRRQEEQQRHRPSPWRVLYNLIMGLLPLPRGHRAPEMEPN
Put plainly: ELISA; PAK1 recombinant protein immobilised on a 96-well plate with 0.5% paraformaldehyde; chemicals (25 or 50 uM) added, then PUMA protein, 2 hr; detected with anti-PUMA antibody and anti-rabbit IgG-HRP, absorbance at 450 nm. The note with it: both partners purified. A general note: An ELISA detects its analyte on a solid surface through an enzyme-linked reagent.

B1: GST-PAK1 N-terminal domain (residues 70-149) (domain or fragment, human, UniProt Q13153 70-149, looked up)
chain: KERPEISLPSDFEHTIHVGFDAVTGEFTGMPEQWARLLQTSNITKSEQKKNPQAVLDVLEFYNSKKTSNSQKYMSFTDKS
notes: Cloned in pGEX-TEV (pGEX-4T1 with a TEV site); pGEX vectors put GST at the N-terminus (surmised); GST is kept on agarose beads in the pull-downs; the discussion says the N-terminal region of PAK1 was used for the screening; also called PAK1 recombinant protein; N-terminal region of PAK1
On to B1, for which the binding result is “binds”.

The values above are taken from article PMC5410337, “Anti-cancer effect of novel PAK1 inhibitor via induction of PUMA-mediated cell death and p21-mediated cell cycle arrest” (Oncotarget, 2017).
